# In patent EP2172481A1:
# Biological target: oocyst extract
# Assay: antigen binding analysis on oocyst extract; method not stated
binder,measurement,value
Di-kappa-body (protein) QVQLQQSGPELVKPGASVKMSCKASGYTFTVYIIHWLKQKPGQGLEWIGYINPYNDGTKYNEKFRGKATLTSDKSSSTAYMELSSLTSEDSAVYYCARFYYGSSSVFDYWGQGTTLTVSSGGSGGSDVVMTQTQKFMSTSVGDRVSVTCKASQNVGTNVAWYQQKPGQSPKALIYSASYRYSGVPDRFTGSGSGTDFTLTISNVQSEDLAEYFCQQYNSYPLTFGAGTKLELKRTVAAPSVFIFPPSDEQLKSGTASVVCLLNNFYPREAKVQWKVDNALQSGNSQESVTEQDSKDSTYSLSSTLTLSKADYEKHKVYACEVTHQGLSSPVTKSFNRGEC,Kd,0.55 nM
